Test results reported in the supplement of paper PMC9942255.
Several values for one entry are separate records, joined by “and”; a condition that tells them apart may be missing. Equal entries are not always repeated.

System: Bacillus subtilis DB104 (SP-AmyQ fusion secretion)
Test: AmyQ secretion efficiency, weighted average sort bin (1 = best secretion, 10 = worst) (bin number (weighted average, 1-10)); higher = lower secretion efficiency
Method in brief: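 Occupied alginate beads were sorted by large-particle flow cytometry into 10 equally populated bins according to green/red fluorescence ratio. Each bead (~65 nL) held fluorescein-starch and about 0.3 cells of a B. subtilis DB104 library expressing mature AmyQ fused to designed signal peptides from the amyE locus, and beads were grown about 13 h at room temperature and stained with nile red before sorting. Bin amplicons were Illumina-sequenced, and the secretion score is the read-frequency-weighted average bin number, normalised to beads per bin, excluding low-abundance sequences.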

Sequence	AmyQ secretion efficiency
MTGSSVITCVMAASLTLGSLLPAGYATAKED	4.28
MTGTIITATTAVVLGSTLFAGAASAQSI	2.31
MTGTTVSTAIIIISVMLSFVIAVFHTIHASELTP	4.15
MTGWLIIAVSLAIAIVLFMYTKGEAKAAGM	7.08
MTGYYKVLTMCFLGLILFVPTALADNS	1.69
MTIFLMAVFVIMISFLIATVNVNTAHAAID	6.34
MTIIIAIIAAVIVIAALITFNVRNASPG	7.45
MTKAFLVFLSVVLVTTVFLVKQQESVAQAKQL	5.72
MTKIGLLFMLCLAALFTIGFPAQQADAAEA	3.42
MTKKAKKKKLVCVLLISGWLAPAASASAQTT	2.39
MTKKARKLPLVCVLLISGWLAPAASASAQTT	1.96
MTKKAWFLPLVCVLLIDEDLAPAASASAQTT	2.58
MTKKAWFLPLVCVLLIEEEEEEAASASAQTT	6.12
MTKKAWFLPLVCVLLIRKKLAPAASASAQTT	7.9
MTKKAWFLPLVCVLLISGWLAASAQTT	6.17
MTKKAWFLPLVCVLLISGWLAPAASASAQED	2.97
MTKKAWFLPLVCVLLISGWLAPAASASAQTD	1.97
MTKKAWFLPLVCVLLISGWLAPAASASAQTK	1.59
MTKKAWFLPLVCVLLISGWLAPAASASDQTT	2.72
MTKKAWFLPLVCVLLISGWLAPAASASEQTT	1.79
MTKKAWFLPLVCVLLISGWLAPAASASFQTT	2.38
MTKKAWFLPLVCVLLISGWLAPAASASGQTT	1.87
MTKKAWFLPLVCVLLISGWLAPAASASHQTT	2.01
MTKKAWFLPLVCVLLISGWLAPAASASKQTT	2.02
MTKKAWFLPLVCVLLISGWLAPAASASLQTT	3.41

Sequence	AmyQ secretion efficiency
MTKKAWFLPLVCVLLISGWLAPAASASMQTT	2.07
MTKKAWFLPLVCVLLISGWLAPAASASNQTT	2.2
MTKKAWFLPLVCVLLISGWLAPAASASPQTT	2.48
MTKKAWFLPLVCVLLISGWLAPAASASQQTT	2.02
MTKKAWFLPLVCVLLISGWLAPAASASRQTT	1.94
MTKKAWFLPLVCVLLISGWLAPAASASSQTT	1.17
MTKKAWFLPLVCVLLISGWLAPAASASTQTT	2.01
MTKKAWFLPLVCVLLISGWLAPAASASVQTT	2.48
MTKKAWFLPLVCVLLISGWLAPAASASWQTT	3.5
MTKKAWFLPLVCVLLISGWLAPAASCSAQTT	3.03
MTKKAWFLPLVCVLLISGWLAPAASGSAQTT	2.23
MTKKAWFLPLVCVLLISGWLAPAASISAQTT	2.33
MTKKAWFLPLVCVLLISGWLAPAASKSAQTT	4.7
MTKKAWFLPLVCVLLISGWLAPAASLSAQTT	3.89
MTKKAWFLPLVCVLLISGWLAPAASMSAQTT	3.47
MTKKAWFLPLVCVLLISGWLAPAASRSAQTT	5.9
MTKKAWFLPLVCVLLISGWLAPAASSSAQTT	3
MTKKAWFLPLVCVLLISGWLAPAASVSAQTT	2.17
MTKKAWFLPLVCVLLIVIALIFSFASGWLAPAASASAQTT	2.12
MTKKAWFLPLVCVLLIVSWLASAASASAQTT	2.08
MTKKAWFLPLVCVSGWLAPAASASAQTT	2.07
MTKKAWFLTLVCVLLISGWLAPAASASAQTT	1.56
MTKKFTIMSAWFLPLVCVLLISGWLAPAASASAQTT	1.82
MTKKGWQLPLVCVLLISGWLAPAASASAQTT	1.79
MTKKRRRAWFLPLVCVLLISGWLAPAASASAQTT	2.33

Sequence	AmyQ secretion efficiency
MTKKRWKTPYVCVLLISGWLAPAASASAQTT	1.44
MTKKTKNRLISSVLSTVVISSLLFPGAAGASSK	1.56
MTKKTSIILITSAWFLPLVCVLLISGWLAPAASASAQTT	2.35
MTKKYWQSPYYCRLLISGWLAPAASASAQTT	8.15
MTKLKMLSMGKRRTASLFIFSSQALAVQY	7.8
MTKLKMLSMLRKKKRRLFIFSSQALAVQY	6.63
MTKLKMLSMLRRKKASLFIFSSQALAVQY	6.44
MTKLKMLSMLTVMIASLFIFSKKRRRKALAVQY	7.47
MTKLKMLSMLTVMIASLFIFSKRRALAVQY	6.11
MTKLKMLSMLTVMIASLFIFSSQALAKRK	4.03
MTKLKMLSMLTVMIASLFIFSSQALDVQY	6.18
MTKLKMLSMLTVMIASLFIFSSQALFVQY	7.31
MTKLKMLSMLTVMIASLFIFSSQALGVQY	3.68
MTKLKMLSMLTVMIASLFIFSSQALLVQY	6.07
MTKLKMLSMLTVMIASLFIFSSQALMVQY	5.71
MTKLKMLSMLTVMIASLFIFSSQALSVQY	2.56
MTKLKMLSMLTVMIASLFIFSSQALVVQY	5.36
MTKLKMLSMLTVMIASLFIFSSQCLAVQY	2.27
MTKLKMLSMLTVMIASLFIFSSQGLAVQY	2.52
MTKLKMLSMLTVMIASLFIFSSQILAVQY	6.11
MTKLKMLSMLTVMIASLFIFSSQMLAVQY	4.6
MTKLKMLSMLTVMIASLFIFSSQQLAVQY	6.53
MTKLKMLSMLTVMIASLFIFSSQTLAVQY	2.28
MTKLKMLSMRSRMIASLFIFSSQALAVQY	3.8
MTKRGIQAFAGGIILATAVLAAVFKKTKKDQAAAV	7.92

Sequence	AmyQ secretion efficiency
MTKRGIQAFAGGIILATAVLAAVFRLTTFDQAAAV	5.37
MTKRGIQAFAGGIILATAVLAAVFYLTDEDQAAAD	6.91
MTKRGIQAFAGGIILATAVLAAVFYLTDEDQAAAR	4.37
MTKRGIQAFAGGIILATAVLAAVFYLTDEDQAAAV	5.97 and 6.45
MTKRGIQAFAGGIILATYLTDEDQAAAV	7.21
MTKRGIQAFAGGIYLTDEDQAAAV	7.17
MTKRITYSLLALLAVVAFAFTDSSKAKAAEA	2.05
MTKRLSTTLTFLGIQAFAGGIILATAVLAAVFYLTDEDQAAAV	6.23
MTKRYGQTKTYKGTTTTAVLAAVFYLTDEDQAAAV	6.8
MTKTIFAFLTGLMMFGTITAASASPD	3.99
MTKVMLATALFLGLTPAGANAADL	5.8
MTKWIVLFLVLIAAAISIFVYVSTGSEK	2.48
MTKYTVIASILLSFLSVLSGGHHESKAFPV	6.55
MTLALRVSALTPSTTLAITAKAKEL	7.08
MTLGGSVSMFLVALTMCGGLFVTPAKAVKT	3.81
MTLSVIIAGVLTVAAAAMTAKMYATAKGN	6.67
MTLTSGFLLLSCLALSTVFVATTIANAPTH	5.02
MTLWMTSTLLVVLFTIVTFGLVSPPAALMADKP	5.58
MTMKLKWLSFLLGFIILLFLFKYQFSNNDS	7.21
MTMLLAAGIIGLLTVSIASPSFAAEK	5.35
MTMLRKIIGWILLLCIIASFIVTPLFAFTVIASGKEV	7.88
MTMLRKIIGWILLLCIIATPLFAFTVIASGKEV	5.08
MTMLRKIIGWILLLCIIDDDEEDVIASGKEV	5.3
MTMLRKIIGWILLLCIIDDEAFTVIASGKEV	5.2
MTMLRKIIGWILLLCIIKKKAFTVIASGKEV	7.58

Sequence	AmyQ secretion efficiency
MTMLRKIIGWILLLCIIKKRRRRVIASGKEV	7.19
MTMLRKIIGWILLLCIIPEFAFTVIASGKEV	5.32
MTMLRKIIGWILLLCIIPLFAFTVIASAKEV	4.98
MTMLRKIIGWILLLCIIPLFAFTVIASCKEV	8.74
MTMLRKIIGWILLLCIIPLFAFTVIASDKEV	7.16
MTMLRKIIGWILLLCIIPLFAFTVIASFKEV	6.97
MTMLRKIIGWILLLCIIPLFAFTVIASGAED	6.01
MTMLRKIIGWILLLCIIPLFAFTVIASGAPV	6.61
MTMLRKIIGWILLLCIIPLFAFTVIASGASK	7.69
MTMLRKIIGWILLLCIIPLFAFTVIASGATD	6.31
MTMLRKIIGWILLLCIIPLFAFTVIASLKEV	3.47
MTMLRKIIGWILLLCIIPLFAFTVIASNKEV	5.99
MTMLRKIIGWILLLCIIPLFAFTVIASPKEV	7.22
MTMLRKIIGWILLLCIIPLFAFTVIASQKEV	6.87
MTMLRKIIGWILLLCIIPLFAFTVIASRKEV	6.1
MTMLRKIIGWILLLCIIPLFAFTVIASSKEV	6.98
MTMLRKIIGWILLLCIIPLFAFTVIASTKEV	7.17
MTMLRKIIGWILLLCIIPLFAFTVIASVKEV	7.89
MTMLRKIIGWILLLCIIPLFAFTVIASWKEV	5.23
MTMLRKIIGWILLLCIIPLFAFTVIASYKEV	6.87
MTMLRKIIGWILLLCIIPLFAFTVICSGKEV	7.14
MTMLRKIIGWILLLCIIPLFAFTVIDSGKEV	6.22
MTMLRKIIGWILLLCIIPLFAFTVIESGKEV	6.44
MTMLRKIIGWILLLCIIPLFAFTVIGSGKEV	6.78
